Test results published in the nanobody polyreactivity screen of Harvey et al. (2022).

test: yeast display, Sf9 membrane polyspecificity reagent, FACS + sequencing; frameworks hold sequencing errors
Procedure, shortened: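 Polyreactivity labels are assigned by the sorting gate from which each nanobody was recovered. The gates were low and high (top ~1%), set on anti-HA fluorescence for expression and streptavidin fluorescence for reagent binding. Before sorting, galactose-induced (36–48 hours) yeast display cells were stained for 1 hour at 4 °C with 10% biotinylated, detergent-solubilized Sf9 membrane reagent.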

Sequence | polyreactivity (PSR sort gate)
QDQLVDSGGGLVQAGGSLRLSCAASASTFDPNLMPSYRQAPGKEREVVAAISSRSGSTSYADSVKGRFTISRDNAKNTDYLQMNSLKPEDTAVYYCAARVYGLPLRMYSWGQGTQVTGSS | high polyreactivity
QDQLVDSGGGLVQAGGSLRLSCAASGNIFTFNAMGWYRQAPGKERELVAAISRGGRTNYADSVKGRFTISRDNAKNTVYLQMNSLKPEDTAVYYCAAEFPQRASGGRYKTEYDYWRQGTQVTVSS | low polyreactivity
QDQLVDSGGGLVQAGGSLRLSCAASGYTFWDYAMGWYRQAPGKEREFVAGISFSDGGTYYADSVKGRFTISRDNAKNTVYLQMNSLKPEDTAVYYCAATYPYSWVYSGYYYWGQGTQVTVSS | low polyreactivity
QDQLVDSGGGLVQAGGSLRLSCAPSGSTIYPNAKGWTRQAPGKERELVAGISSGGGTYYADSVKGRFTISRDNAKNTVYLQMNSLKPEDTAVYYCNAYFLSSCLDYLGQGTQVTVSS | low polyreactivity
QDQLVEAGGGVVQAGGSLRLSCAASVIIIDYYAMAWYRQAPAKERELDAAITSGGSTSYADSVKGRFTISRDNAKNTVYLQMNSLKPEDTAVYYCNNEPSGYQSAYWGQGTQVTVSS | low polyreactivity
QDQLVESAGGLVQAGGSLRLICAATGSNFNRYAMGWYRQAAGKEREFVAAITRRGGNTYYADSVKGRFTISRDHPKNTVYLQMNSLKPVDTAVYYCAAPFYFPAGLLYYENNYWGHGTQVTVSS | high polyreactivity
QDQLVESAGGLVQAGGSLRLSCAASGNTFSTNPLGSYRQAAGKERELVATISRNGGSTSYAVSVKGRFTISRDNAKNSDYLKMYSLKAEDTAVYYCAARSVRPGPFSDDYWGQGTQVTVSS | low polyreactivity
QDQLVESAGGLVQAGGSLRLSCAASGSNFYHYAMGWYRQAHGKERELVAAISQSGGGTYYADSVKGRFTISRDNAKNTVYLQMNSLKPEDTAVYYFAAKGRHNYYYWGQGTLVTVSS | high polyreactivity
QDQLVESCGGLVQAGGSLRISCAASGRIFLPTAMGGYRQAPGKERELVAAINSSDASTDFADSVQGRFTISRDHAKTTVYLQRNSLKPEDTAVYYCAAENDTSDAVRYDYWGQGTQVTVSS | low polyreactivity
QDQLVESCGGLVQAGGSLRLICAAYGRIISINAMGWYRQAPVKERELVATISWRGGSTYYADSVKGRFTISRDNAKNTVYLQMNSLKPEDTAVYYCKKVFSERWARYFRYDYWVQGTQVTVSS | high polyreactivity
QDQLVESGAGLVQAGGSLRLSCAASGRTFAYNAMGWYRQAPGKERELVASITSGGSTNYADSVKGRFTISRDNAKNTVYLQMNCLKPEDTAVYYCNKDGKYHRVLYDYWGQGTQVTVSS | low polyreactivity
QDQLVESGGCLVQAGGSHRLSSAASGIIIWYNTMGRYRQAPGKEREFFARISRRVGSTYYADSVKGRFTISRDNAKNTVYLQMNSLKPEDTAVYYCNRTRYRSFHYDYWGQGTKVTVSS | high polyreactivity
QDQLVESGGCLVQAGGSLRLSCAASGNIFDTYVMGWYRQAPGKEMELVAAITSDGGTYYADSVKARFTISRDNAKNTVYLQMNSLKPEDTAVYYCAADTYYYPIHDYWGQGTQVTVSS | low polyreactivity
QDQLVESGGCLVQAGGSLRLSCAASGSISDSKAMGWYRQAPGKERELVAAISNGGSTNYADSVKGRFTISRDNAKNTVYLQMNSLKPEDTAVYYCARDYDIQNHEYDYWGQGTQVTVSS | low polyreactivity
QDQLVESGGGIVQEGGSLRLSCAASGLIFRVYAMGWYRQAPGKEWELVATITRGGRTYYADSVKGRFTISRDNAKNTVYLQMNSLKPEDTAVSYCAVLSVRRSYNYWGQGTQVTVSS | high polyreactivity
QDQLVESGGGLDQAGGSLRLSCAASGRIFQKYAMACYRQAPGKERELVAAISSGDSTYADSVKGRFTISRDNAKNTVYLQMNSLKPEDTAVYYCAADSHYQEDFRIQYDYWGQGTQVTVSS | low polyreactivity
QDQLVESGGGLFQAGGSLSLSCAASGNTFYWNAMGWYRQATGKEREFVAAISTTGVSTYYADSVKGRFTISRDNSKNTVYLQMNSLKPEDTAVYYCASEIIGYHTIYDYWGQGTQVTVSS | low polyreactivity
QDQLVESGGGLGQAGGSLRLSCAASGSNFRPNAMGWYRQAPGKEMELVASITRNGGSTYYADSVKGRFTISRDNAKNTVYLQMNSLKPEDTAVYYCNAGYYYWGQGTQVTLSS | high polyreactivity
QDQLVESGGGLLQAGGSLRLICAASGYTLQGYAMGSSRQATGKERELVAAISSNGGSTYYADSVKGRFTISRDNAKNTVYLEMNSLKPEDTAVYYCNAQYIVYYRYARITKYDYWGQGTQVTVSS | high polyreactivity
QDQLVESGGGLVEAGGSLRLSCAASGRTFWLNAMGWYRQAPGKERELVATISSSSGSTTYADSVKGRFTSSRDNAKNTVYIQMNSLKPEDTAVYYCNVDDPFYSGVVEFDYWGQGTQVTVSS | low polyreactivity
QDQLVESGGGLVHAGGSLRLSCAASVSIFVRNAMGWYRQAPGKERELVAADSVKGRFTISRDNAKNTVYLQMNSLKPEDTAVYYCNKDYIIRRGPIVYYGFDYWGQGTQVTVSS | low polyreactivity
QDQLVESGGGLVHAGGSLRLSSAASGLTFSYYAMGWYRQAPGKERELVAAIDYSGGTTYADSVKGRFTISRDNAKNTVYLQMNSLKPEDTAVYYCADAPDGWFASGDEYWGHGTQVTVSS | high polyreactivity

Sequence | polyreactivity (PSR sort gate)
QDQLVESGGGLVKAGGSLRLSCAASGGTFYYYAMGWYRQAPGKERELVAANTRSGGNAYYADSVKARFTISRDNAKNTVYLLLHSLKPEDTAVYYCAAPFVNFVGSLVYAGYDSCGQGTQVTVSS | low polyreactivity
QDQLVESGGGLVQAGCSLRFTCAACGRIFHYYAMGWYRQAPGKERELVAAITSSRGSTYYADSVKGRFTISRDNAKKTGYVQMNSLQPEDTAVYYCAAGLIVGRFVRYDYWGQGTHVTVSS | high polyreactivity
QDQLVESGGGLVQAGGCLRLSCAASGSIFYIYGRGWYRQEPGKERELVAAISRSGGRTYYADSVKGRFTISRDTANNTVYLQMNSLKPEDTAVYYCAARDHYSTGGMNYWGQGTQVTVSS | high polyreactivity
QDQLVESGGGLVQAGGRLRLSSAASVSTFLPNTLGWYSQAHGKERELVADISWSGGSTYYADSVKGRLTISRDNAKNTVYLQMNRLKPEDTADSYCAADIASGYYWYDYWGQGTQVTVTS | low polyreactivity
QDQLVESGGGLVQAGGSLGLSCAASGIIFYGYAMRWYRPAPGKERELVAAISRSGGSTYYADSVKGRFTISRDNAMNTVYLQMNSLKPEDTAVYYCAASGVTYDYWGQGTQVTVSS | high polyreactivity
QDQLVESGGGLVQAGGSLPLSCAASGRTISAYAMGWYRQAPGKERELVAAISRRGGSTYYADSVKGRFSISRDNAKNTVYLQLNSLKPEETAVYYCAADVYKQYGYYYWGEGTQVTVSS | high polyreactivity
QDQLVESGGGLVQAGGSLRISCAASGITFRYYAMGWYRQAPGKERELVAAITSGGRTYYADSVKGRFTISRDNAKNRVYLQMISLKPEDTAVYYGNAVTFSFYLYAWGQGTQVTVSS | high polyreactivity
QDQLVESGGGLVQAGGSLRLICAASGRTFWAYAMGWYRQAPGKERELVAAISVSGGRTYYADSVKGRFTISRDNAKNTVYLQMNSLKPEDTAVYYCNKRYLKSYEYYWGQGTHVTVSS | high polyreactivity
QDQLVESGGGLVQAGGSLRLICAASGSNLNNYAMGWSRQAPGKERELVAAISSSGGTNYADSVKGRFTISRDNAKNTVYLQMNSLKPEDTAVYYCNADVLEGGYDYWGQGPQVTVSS | low polyreactivity
QDQLVESGGGLVQAGGSLRLSCAASAFTLSPNSMGWDRQAPGKEREFVAAISQRGGSTYYADSVKGRFTISRDNAKNTVYLQMNSLKPEDSAVYYCARDTKYKYDYWGQGTQVTVSS | low polyreactivity
QDQLVESGGGLVQAGGSLRLSCAASARIFERYAKGWYRPPPGKEMELVAAISYRGGRTYYADSVKGRFTISRVNAKNTVYLQMNSLKPEDTAVYYCAAYTYFRDWAEYDYWGQGTQVTVSS | high polyreactivity
QDQLVESGGGLVQAGGSLRLSCAASGFIFFYYAMGRYRQAPGKERELVAAISSSGGSTYYADSVKGRFTISRDNAKNTVYLQMNSLKPEDTAVYYCAAQYNVPRDKYYYWGQGTQVTVSS | high polyreactivity
QDQLVESGGGLVQAGGSLRLSCAASGFIFGGYAMGWYRQAPGKERELVAAISSSGGSTYYADSVKGRFTISRDNAKNTVYLQMNSLKPEDTAVYYCAKVGWSRRYYYWGQGTQVTVSS | high polyreactivity
QDQLVESGGGLVQAGGSLRLSCAASGFIFGYYAMGWYRQAPGKERDLFAAINKNGGSTYYADSVKGRFTISRDNAKNTFYLQRNSLIPEDTAVYYCASRARGYAWTYDYWGQGTQVTVSS | high polyreactivity
QDQLVESGGGLVQAGGSLRLSCAASGFIFIPNAMGWYRQAPRKERELVAAISFSDGTTYYADSVKGRFTISRDYEKNTVYLQMNSLKPEDTAVYYCAAEGYQSQYDYWGQGTQVTVSS | high polyreactivity
QDQLVESGGGLVQAGGSLRLSCAASGFIFYSNAMGWYRQEPGKERELVAAITSGGGSTYYADSVKGRFTISRDTAKNTVYLQMNSLKPEDTAVDYCAVSIGRYPYRYGYWGQGTQVTVSS | high polyreactivity
QDQLVESGGGLVQAGGSLRLSCAASGFIFYYYAMGWYRPAPGKERELVAAISGSGGSTYYADSVKGRFTISRDNAKNTVYLQMNSLKPEDTAVYYCNARRPGYYVYYFAYDYWGQGTQVTVSS | high polyreactivity
QDQLVESGGGLVQAGGSLRLSCAASGFNFYKYAMGWYRQAPGKERELVAAITGRGGSTYYADSVKGRFTISRDNAKNTVYLRMNSLNPEDTAVYYCAASQRSGHPSYDYWGQGTQVTVSS | high polyreactivity
QDQLVESGGGLVQAGGSLRLSCAASGFTFACYTMGWYRQAPGKERELVAGIDWSGGSTYYADSVKGRFTISRDNEKNTVYLEMNSLKPEDTAVYYCNAAVLYYVYPGYDYWGQGTQVTVSS | high polyreactivity
QDQLVESGGGLVQAGGSLRLSCAASGFTFGENSMGWYRQAPGKERELVAANRYSGGSTYYADSVKGRFTISRDNAKNTVYLQMNSLKPEDTAVYYCNADTYALGPAVIPGDEYWGQGTQVTVSS | low polyreactivity
QDQLVESGGGLVQAGGSLRLSCAASGFTFTRNAMGWYRQAPGKEREFVAAISVGGGRTYYADSVKGRFTISRDNAKNTVYLQMNSLKPEDTAVYYCNAYQGWRYDYWGPGTQVTVSS | high polyreactivity
